Test system: Escherichia coli TOP10
Test: shrunken log2 fold change of peptide-encoding DNA abundance (4.5 h post-induction vs induction); higher = less antimicrobial activity (less host growth inhibition)
Settings: time post-induction: 4.5 h; library: site-saturation at positions 5, 18, 19, 20
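Also: peptides expressed intracellularly from a pBAD plasmid library in pooled LB shake-flask culture, induced with 0.3% L-arabinose, DNA abundance read by NGS, three biological replicates, DESeq2 with apeglm shrinkage.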

| Sequence | shrunken log2 fold change |
| --- | --- |
| RRIRNRPPRLPRPRPRPICRPRP | -0.0024 |
| RRIRDRPPRLPRPRPRPAWGPRP | 0.769 |
| RRIRERPPRLPRPRPRPVMSPRP | 0.0484 |
| RRIRVRPPRLPRPRPRPVDVPRP | -0.106 |
| RRIRYRPPRLPRPRPRPNMPPRP | -0.304 |
| RRIRGRPPRLPRPRPRPNQGPRP | 0.0411 |
| RRIRHRPPRLPRPRPRPEIDPRP | 0.0729 |
| RRIRQRPPRLPRPRPRPMWDPRP | -0.0352 |
| RRIRMRPPRLPRPRPRPIMYPRP | -0.171 |
| RRIRTRPPRLPRPRPRPVELPRP | -0.0533 |
| RRIRGRPPRLPRPRPRPQAAPRP | 1.22 |
| RRIRVRPPRLPRPRPRPPERPRP | 0.257 |
| RRIRKRPPRLPRPRPRPHTTPRP | 0.0925 |
| RRIRQRPPRLPRPRPRPRGLPRP | 0.00877 |
| RRIRTRPPRLPRPRPRPLRYPRP | -0.255 |
| RRIRWRPPRLPRPRPRPPVYPRP | -0.0994 |
| RRIRARPPRLPRPRPRPMGRPRP | 0.275 |
| RRIRARPPRLPRPRPRPNGCPRP | -0.0858 |
| RRIRHRPPRLPRPRPRPPFGPRP | -0.0898 |
| RRIRYRPPRLPRPRPRPEMYPRP | -0.0203 |
| RRIRKRPPRLPRPRPRPTATPRP | 1.4 |
| RRIRYRPPRLPRPRPRPSIIPRP | -0.236 |
| RRIRSRPPRLPRPRPRPRFLPRP | 0.159 |
| RRIRRRPPRLPRPRPRPQEGPRP | -0.0768 |
| RRIRTRPPRLPRPRPRPWYCPRP | -0.153 |

| Sequence | shrunken log2 fold change |
| --- | --- |
| RRIRFRPPRLPRPRPRPTFCPRP | -0.152 |
| RRIRARPPRLPRPRPRPVFEPRP | 0.41 |
| RRIRMRPPRLPRPRPRPHLEPRP | 0.0983 |
| RRIRSRPPRLPRPRPRPCHKPRP | -1.16 |
| RRIRHRPPRLPRPRPRPMFTPRP | -0.102 |
| RRIRQRPPRLPRPRPRPFHKPRP | -0.0921 |
| RRIRRRPPRLPRPRPRPSIMPRP | -0.213 |
| RRIRYRPPRLPRPRPRPTAYPRP | -0.537 |
| RRIRHRPPRLPRPRPRPHTVPRP | -0.606 |
| RRIRGRPPRLPRPRPRPHDYPRP | 0.0282 |
| RRIRHRPPRLPRPRPRPLTTPRP | -0.142 |
| RRIRRRPPRLPRPRPRPSNFPRP | -0.177 |
| RRIRERPPRLPRPRPRPYFEPRP | -0.696 |
| RRIRCRPPRLPRPRPRPACKPRP | -0.312 |
| RRIRTRPPRLPRPRPRPWVSPRP | 0.137 |
| RRIRHRPPRLPRPRPRPGLMPRP | -0.162 |
| RRIRLRPPRLPRPRPRPQEYPRP | -0.846 |
| RRIRDRPPRLPRPRPRPQTGPRP | -0.283 |
| RRIRERPPRLPRPRPRPLWQPRP | 0.113 |
| RRIRGRPPRLPRPRPRPCCTPRP | 1.31 |
| RRIRPRPPRLPRPRPRPWIVPRP | -0.197 |
| RRIRQRPPRLPRPRPRPGVVPRP | 0.000417 |
| RRIRGRPPRLPRPRPRPWRQPRP | 0.0568 |
| RRIRERPPRLPRPRPRPGHSPRP | -0.134 |
| RRIRCRPPRLPRPRPRPATYPRP | -0.389 |

| Sequence | shrunken log2 fold change |
| --- | --- |
| RRIRHRPPRLPRPRPRPCLNPRP | -0.263 |
| RRIRQRPPRLPRPRPRPRCMPRP | -0.164 |
| RRIRPRPPRLPRPRPRPAGEPRP | 0.418 |
| RRIRQRPPRLPRPRPRPGTEPRP | 0.119 |
| RRIRWRPPRLPRPRPRPYADPRP | -0.0623 |
| RRIRIRPPRLPRPRPRPGVEPRP | -0.0594 |
| RRIRKRPPRLPRPRPRPHDGPRP | 0.0431 |
| RRIRFRPPRLPRPRPRPSHAPRP | -0.149 |
| RRIRFRPPRLPRPRPRPPGYPRP | 0.0848 |
| RRIRIRPPRLPRPRPRPDDLPRP | 0.118 |
| RRIRARPPRLPRPRPRPDPSPRP | 0.508 |
| RRIRVRPPRLPRPRPRPRSIPRP | 3.22 |
| RRIRKRPPRLPRPRPRPRYYPRP | -0.248 |
| RRIRDRPPRLPRPRPRPHKYPRP | -0.116 |
| RRIRARPPRLPRPRPRPAYPPRP | 0.106 |
| RRIRKRPPRLPRPRPRPCITPRP | -0.146 |
| RRIRTRPPRLPRPRPRPFPHPRP | -0.247 |
| RRIRQRPPRLPRPRPRPYPKPRP | 0.00727 |
| RRIRLRPPRLPRPRPRPDFVPRP | -0.108 |
| RRIRIRPPRLPRPRPRPRQIPRP | -0.212 |
| RRIRRRPPRLPRPRPRPKAAPRP | 0.596 |
| RRIRYRPPRLPRPRPRPNLEPRP | -0.113 |
| RRIRARPPRLPRPRPRPKAMPRP | 0.00028 |
| RRIRTRPPRLPRPRPRPQKPPRP | -0.0591 |
| RRIRQRPPRLPRPRPRPHMCPRP | -0.0238 |

| Sequence | shrunken log2 fold change |
| --- | --- |
| RRIRDRPPRLPRPRPRPYVCPRP | 0.0261 |
| RRIRSRPPRLPRPRPRPQWVPRP | 0.0964 |
| RRIRARPPRLPRPRPRPHVLPRP | -0.0367 |
| RRIRNRPPRLPRPRPRPDGIPRP | 0.0081 |
| RRIRRRPPRLPRPRPRPMVHPRP | 0.113 |
| RRIRSRPPRLPRPRPRPHTYPRP | -0.265 |
| RRIRHRPPRLPRPRPRPKWDPRP | -0.00576 |
| RRIRRRPPRLPRPRPRPMNKPRP | 0.0717 |
| RRIRSRPPRLPRPRPRPRHDPRP | 0.23 |
| RRIRFRPPRLPRPRPRPKPVPRP | 0.727 |
| RRIRGRPPRLPRPRPRPQEDPRP | 0.291 |
| RRIRVRPPRLPRPRPRPSAPPRP | 0.358 |
| RRIRGRPPRLPRPRPRPYDRPRP | 0.136 |
| RRIRCRPPRLPRPRPRPMVTPRP | -0.071 |
| RRIRCRPPRLPRPRPRPIKQPRP | -0.062 |
| RRIRSRPPRLPRPRPRPSGHPRP | -0.433 |
| RRIRHRPPRLPRPRPRPADWPRP | 0.0838 |
| RRIRKRPPRLPRPRPRPTYEPRP | 0.367 |
| RRIRVRPPRLPRPRPRPLSSPRP | 0.0511 |
| RRIRNRPPRLPRPRPRPATRPRP | 0.322 |
| RRIRCRPPRLPRPRPRPPNFPRP | -0.0525 |
| RRIRQRPPRLPRPRPRPNQRPRP | 0.0738 |
| RRIRWRPPRLPRPRPRPTWAPRP | 0.369 |
| RRIRWRPPRLPRPRPRPRAGPRP | 0.673 |
| RRIRQRPPRLPRPRPRPKNQPRP | -0.214 |

| Sequence | shrunken log2 fold change |
| --- | --- |
| RRIRHRPPRLPRPRPRPCYNPRP | -0.427 |
| RRIRRRPPRLPRPRPRPTTHPRP | 0.306 |
| RRIRARPPRLPRPRPRPNHLPRP | -0.000432 |
| RRIRSRPPRLPRPRPRPLHNPRP | -0.198 |
| RRIRWRPPRLPRPRPRPQTGPRP | -0.000887 |
| RRIRFRPPRLPRPRPRPMLCPRP | -0.103 |
| RRIRTRPPRLPRPRPRPFWCPRP | -0.111 |
| RRIRGRPPRLPRPRPRPKNYPRP | 0.175 |
| RRIRGRPPRLPRPRPRPARHPRP | 0.664 |
| RRIRIRPPRLPRPRPRPCHHPRP | 0.0314 |
| RRIRDRPPRLPRPRPRPTYSPRP | -0.757 |
| RRIRWRPPRLPRPRPRPNKSPRP | 0.0866 |
| RRIRWRPPRLPRPRPRPTIGPRP | 0.217 |
| RRIRRRPPRLPRPRPRPLRAPRP | 1.17 |
| RRIRPRPPRLPRPRPRPVGWPRP | 0.826 |
| RRIRCRPPRLPRPRPRPAGDPRP | 0.176 |
| RRIRMRPPRLPRPRPRPRWHPRP | 0.378 |
| RRIRHRPPRLPRPRPRPYKGPRP | -0.33 |
| RRIRMRPPRLPRPRPRPWQHPRP | 0.0948 |
| RRIRFRPPRLPRPRPRPLYHPRP | -0.859 |
| RRIRLRPPRLPRPRPRPLKHPRP | -0.161 |
| RRIRVRPPRLPRPRPRPHIKPRP | -0.389 |
| RRIRGRPPRLPRPRPRPYDPPRP | -0.0783 |
| RRIRYRPPRLPRPRPRPAEEPRP | 0.0567 |
| RRIRMRPPRLPRPRPRPWAPPRP | 0.214 |
